According to patent US20250066452A1, “SYNTHETIC AMPHIPATHIC HELICAL PEPTIDES AND TREATMENT METHODS USING SYNTHETIC AMPHIPATHIC HELICAL PEPTIDES” (UNIVERSITY OF MARYLAND, BALTIMORE, priority 2022, published 2025):

What was measured:
[1] = target: T1, CD36 (Homo sapiens, UniProt P16671); assay: IL-8 in conditioned medium (ELISA) of CD36-expressing HEK293 cells after 20 hours incubation with CD36 ligands; type: cell-based; conditions: CD36-expressing HEK293 cells; increasing ligand concentrations; 20 hours (FIG. 8)
T1 construct: expressed in transfected cells; host or cells: HEK293
Method: (§1) Following 20 hours incubation of wild-type (WT) and CD36-expressing (CD36+) HEK293 cells with increasing concentrations of CD36 ligands, the IL-8 levels were determined in conditioned medium by ELISA.
Following 20 hours incubation of CD36-expressing cells with the indicated amounts of the ligands, the IL-8 levels were determined in conditioned medium.
(§2) To study this, the applicant conducted cell culture experiments using wildtype (WT) and CD36+ expressing (CD36+) HEK293 cells, treated with increasing amounts of CD36 ligands. Specifically, the ligands tested were the PAMP lipopolysaccharide (LPS) and the DAMPs high mobility group box 1 protein (HMGB1), Histone H3B, and heat shock protein 60 (HSP60). […] Similarly to HSP60, it is presumed that HSP70 and HSP90 also cause inflammation mediated by the CD36 receptor, and which may be alleviated by the disclosed peptides.
Additionally, the applicant studied the effects of the above-referenced SAHP L37pA as an inhibitor of CD36-dependent, PAMP/DAMP-induced pro-inflammatory response. See FIGS. 9(a)-9(c) To study this, the applicant conducted cell culture experiments using CD36+ HEK293 cells, treated with increasing amounts of CD36 ligands. […] As controls, no treatment, L37pA alone, and L3D alone were administered.
As controls, no treatment, L37pA alone, and L3D alone were administered. […]

[2] = system: wild-type (WT) HEK293 cells; assay: IL-8 in conditioned medium (ELISA) of wild-type HEK293 cells after 20 hours incubation with CD36 ligands; type: cell-based; conditions: wildtype HEK293 cells; increasing ligand concentrations; 20 hours (FIG. 8)
Method: as §1, §2

T1 sequence (P16671 whole entry): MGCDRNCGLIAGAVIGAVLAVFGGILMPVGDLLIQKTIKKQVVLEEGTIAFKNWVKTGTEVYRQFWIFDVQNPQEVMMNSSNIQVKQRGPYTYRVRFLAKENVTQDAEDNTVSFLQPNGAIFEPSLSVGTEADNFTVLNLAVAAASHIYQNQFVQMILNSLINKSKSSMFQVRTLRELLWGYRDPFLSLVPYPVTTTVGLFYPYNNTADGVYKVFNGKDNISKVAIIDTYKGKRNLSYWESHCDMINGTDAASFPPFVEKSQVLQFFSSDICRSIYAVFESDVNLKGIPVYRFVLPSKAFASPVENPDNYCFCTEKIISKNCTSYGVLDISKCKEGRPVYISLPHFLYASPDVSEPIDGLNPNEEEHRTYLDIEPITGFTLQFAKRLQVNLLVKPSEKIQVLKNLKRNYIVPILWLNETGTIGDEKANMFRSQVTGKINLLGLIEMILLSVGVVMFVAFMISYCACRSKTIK

IL-8 produced by cells treated with the ligand [1]: significant amount of IL-8
B1: heat shock protein 60 (protein, UniProt P10809 27-573, looked up)
60 kDa heat shock protein, …: AKDVKFGADARALMLQGVDLLADAVAVTMGPKGRTVIIEQSWGSPKVTKDGVTVAKSIDLKDKYKNIGAKLVQDVANNTNEEAGDGTTTATVLARSIAKEGFEKISKGANPVEIRRGVMLAVDAVIAELKKQSKPVTTPEEIAQVATISANGDKEIGNIISDAMKKVGRKGVITVKDGKTLNDELEIIEGMKFDRGYISPYFINTSKGQKCEFQDAYVLLSEKKISSIQSIVPALEIANAHRKPLVIIAEDVDGEALSTLVLNRLKVGLQVVAVKAPGFGDNRKNQLKDMAIATGGAVFGEEGLTLNLEDVQPHDLGKVGEVIVTKDDAMLLKGKGDKAQIEKRIQEIIEQLDVTTSEYEKEKLNERLAKLSDGVAVLKVGGTSDVEVNEKKDRVTDALNATRAAVEEGIVLGGGCALLRCIPALDSLTPANEDQKIGIEIIKRTLKIPAMTIAKNAGVEGSLIVEKIMQSSSEVGYDAMAGDFVNMVEKGIIDPTKVVRTALLDAAGVASLLTTAEVVVTEIPKEEKDPGMGAMGGMGGGMGGGMF
notes: DAMP, CD36 ligand
IL-8 produced by cells treated with the ligand [2]: minimal amount of interleukin 8
